Experiments:
[1] = molecular target: T1, GDF15 (ligand used in the GFRAL/RET cell assays) (UniProt Q99988 197-308, limits assumed); assay: cell-based or functional assay
T1 sequence (looked up): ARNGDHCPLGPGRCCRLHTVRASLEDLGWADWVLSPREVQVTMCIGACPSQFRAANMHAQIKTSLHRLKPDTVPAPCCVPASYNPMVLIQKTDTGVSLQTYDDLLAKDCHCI

Human GDF15 Fc [2] = molecular target: T2, Human GDF15 Fc (human, UniProt Q99988 195-308, limits assumed, biotinylated (EZ-Link Sulfo-NHS-Biotinylation Kit) in the SPR assay); assay: BLI Octet; IgG on sensor, 100 nM antigen (avid)
T2 construct: also called human GDF15-Fc fusion; biotinylated Human GDF15 Fc; not shown: Fc part
T2 sequence: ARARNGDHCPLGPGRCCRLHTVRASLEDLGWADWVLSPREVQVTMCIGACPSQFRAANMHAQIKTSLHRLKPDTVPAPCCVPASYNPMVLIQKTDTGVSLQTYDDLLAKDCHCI
Method: Briefly, ForteBio affinity measurements were performed by loading IgGs on-line onto AHC sensors. Sensors were equilibrated off-line in assay buffer for 30 min and then monitored on-line for 60 seconds for baseline establishment. Sensors with loaded IgGs were exposed to 100 nM antigen for 3 minutes, and afterwards were transferred to assay buffer for 3 min for off-rate measurement. All kinetics were analyzed using the 1:1 binding model.

GDNF = molecular target: T3, GDNF (UniProt P39905 78-211); assay: BLI Octet; IgG on sensor
T3 sequence (looked up): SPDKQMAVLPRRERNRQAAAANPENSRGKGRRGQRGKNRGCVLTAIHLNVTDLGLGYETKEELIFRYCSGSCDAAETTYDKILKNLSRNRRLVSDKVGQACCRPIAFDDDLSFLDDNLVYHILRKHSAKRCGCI

GDF11 = molecular target: T4, GDF11 (UniProt O95390 299-407); assay: BLI Octet; IgG on sensor
T4 construct: Also used as ligand in the Activin 2B receptor/SMAD reporter assay

Human Activin A Fc = molecular target: T5, Human Activin A Fc (human, UniProt P08476 311-426); assay: BLI Octet; IgG on sensor
T5 construct: not shown: Fc part
T5 sequence (looked up): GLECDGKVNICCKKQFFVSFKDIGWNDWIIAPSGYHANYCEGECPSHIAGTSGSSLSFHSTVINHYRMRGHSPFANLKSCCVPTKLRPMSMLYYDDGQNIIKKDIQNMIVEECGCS

GDF8 = GDF8 (UniProt O14793 267-375); assay: BLI Octet; IgG on sensor
Human BMP10 = molecular target: T6, Human BMP10 (human, UniProt O95393 317-424); assay: BLI Octet; IgG on sensor
T6 sequence (looked up): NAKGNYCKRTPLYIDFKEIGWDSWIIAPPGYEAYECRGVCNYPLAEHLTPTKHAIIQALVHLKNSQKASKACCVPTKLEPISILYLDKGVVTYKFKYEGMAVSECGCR

Human Activin B = molecular target: T7, Human Activin B (human, UniProt P09529 293-407); assay: BLI Octet; IgG on sensor
T7 sequence (looked up): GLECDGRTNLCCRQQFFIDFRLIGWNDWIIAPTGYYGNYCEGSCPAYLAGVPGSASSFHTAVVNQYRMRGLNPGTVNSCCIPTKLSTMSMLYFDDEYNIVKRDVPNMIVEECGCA

Cyno GDF15 Fc = molecular target: T8, Cyno GDF15 Fc (cyno, UniProt G7PWZ3 193-308, limits assumed); assay: BLI Octet; antigen on sensor, 100 nM Fab (monovalent)
T8 construct: also called cyno GDF15-Fc fusion; not shown: Fc part
T8 sequence: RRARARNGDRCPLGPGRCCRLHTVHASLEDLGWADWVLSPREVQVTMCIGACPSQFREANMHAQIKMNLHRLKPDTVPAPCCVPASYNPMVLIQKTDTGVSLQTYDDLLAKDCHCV

Mouse GDF15 Fc = molecular target: T9, Mouse GDF15 Fc (mouse, UniProt Q9Z0J7 189-303, limits assumed); assay: as above
T9 construct: also called mouse GDF15-Fc fusion; not shown: Fc part
T9 sequence (looked up): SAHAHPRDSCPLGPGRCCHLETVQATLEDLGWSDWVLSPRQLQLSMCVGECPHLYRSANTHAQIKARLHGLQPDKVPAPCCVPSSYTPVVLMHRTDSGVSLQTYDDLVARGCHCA

Human GDF15 Fc [3] = molecular target: T2, Human GDF15 Fc; assay: SPR Biacore 8K; biotinylated antigen captured, Fab analyte
Method: Kinetic analysis was conducted at 25° C. in HBS-EP+running buffer (10 mM HEPES pH 7.4, 150 mM NaCl, 3 mM EDTA, 0.05% Surfactant P20) using a Biacore 8K optical biosensor (Cytiva, Marlborough, MA). The sample compartment was maintained at 10° C. for the duration of the experiment. The Biacore 8K can analyze up to 8 separate interactions in a single cycle.
Each experiment cycle began with an injection (300 s at 2 μL/min) overflow cells 1 and 2 of a 1:100 solution of biotin CAPture reagent (Cytiva) in running buffer. This was followed by an injection (45 s at 10.0 μL/min) of biotinylated human GDF15 (5 nM) overflow cell 2. […] The dissociation of the antibodies were monitored for 3420 s. Finally, an injection (120 s at 10 μL/min) of regeneration solution (6 M Guanidine-HCl in 0.25 M NaOH) overflow cells 1 and 2 prepared the sensor surface for another cycle. Several blank buffer samples were injected (300 s at 30 μL/min) overflow cells 1 and 2 throughout the duration of the experiment and used for reference surface subtraction—each were monitored for the same amount of dissociation time (3420 s) and regenerated under the same conditions as those for the Fab sample injections.

Human BMP9 = molecular target: T10, Human BMP9 (human, UniProt Q9UK05 320-429); assay: BLI Octet; IgG on sensor
T10 sequence (looked up): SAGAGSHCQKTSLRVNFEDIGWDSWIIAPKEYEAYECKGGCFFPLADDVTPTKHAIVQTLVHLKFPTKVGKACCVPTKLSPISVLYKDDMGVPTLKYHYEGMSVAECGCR

GDF10 = molecular target: T11, GDF10 (UniProt P55107 369-478); assay: BLI Octet; IgG on sensor
T11 sequence (looked up): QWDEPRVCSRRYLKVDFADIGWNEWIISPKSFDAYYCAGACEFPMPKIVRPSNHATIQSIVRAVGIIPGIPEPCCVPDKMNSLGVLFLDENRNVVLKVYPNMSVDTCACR

T4 sequence (O95390 299-407 limits assumed): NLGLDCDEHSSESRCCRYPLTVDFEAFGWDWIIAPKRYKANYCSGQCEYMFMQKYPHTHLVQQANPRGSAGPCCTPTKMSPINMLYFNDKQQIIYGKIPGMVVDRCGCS

B1: GDF15 antibody agent Clone F, IgG (antibody, V domains shown)
VH: QVQLVQSGAEVKKPGSSVKVSCKASGGTFGGYAISWVRQAPGQGLEWMGGIIPPYATANYAQKFQGRVTITADESTSTAYMELSSLRSEDTAVYYCARGVGTTHLDVWGQGTMVTVSS
VL: not shown
GDF15-GFRAL RET pERK IC50 (pM) [1]: 34.9 pM
GDF15-GFRAL-RET Luciferase IC50 (pM) [1]: 91.3 pM
Kd (Human GDF15 Fc [2]): 244 pM
binding result (GDNF): no binding (tested: 100 nM)
binding result (GDF11): no binding (tested: 100 nM)
binding result (Human Activin A Fc): no binding (tested: 100 nM)
binding result (GDF8): no binding (tested: 100 nM)
binding result (Human BMP10): no binding (tested: 100 nM)
binding result (Human Activin B): no binding (tested: 100 nM)

B2: GDF15 antibody agent Clone F, Fab (Fab, V domains shown)
VH: QVQLVQSGAEVKKPGSSVKVSCKASGGTFGGYAISWVRQAPGQGLEWMGGIIPPYATANYAQKFQGRVTITADESTSTAYMELSSLRSEDTAVYYCARGVGTTHLDVWGQGTMVTVSS
VL: not shown
notes: Fab; CH1 and CL of the Fab not specified; also called Fab of Clone F
GDF15 GFRAL RET pERK Fab IC50 pM [1]: 11.2 pM
Kd (Cyno GDF15 Fc): 553 pM
Kd (Mouse GDF15 Fc): 26100 pM

B3: GDF15 antibody agent Clone G, Fab (Fab, V domains shown)
VH: QVQLVQSGAEVKKPGSSVKVSCKASGGTFQGYAISWARQAPGQGLEWMGGIIPPYATANYAQKFQGRVTITADESTSTAYMELSSLRSEDTAVYYCARGVGELHLDVWGQGTMVTVSS
VL: not shown
notes: Fab; CH1 and CL of the Fab not specified; also called Fab of Clone G
GDF15 GFRAL RET pERK Fab IC50 pM [1]: 33.2 pM
Kd (Cyno GDF15 Fc): 474 pM

B4: GDF15 antibody agent Clone N, Fab (Fab, V domains shown)
VH: QVQLVQSGAEVKKPGASVKVSCKASGYTFTDYGIFWVRQAPGQGLEWMGWITAYSGDTHYAQKLQGRVTMTTDTSTSTAYMELRSLRSDDTAVYYCVRDTQYGGSPYWGQGTLVTVSS
VL: EIVMTQSPATLSVSPGERATLSCRASQSVSSNLAWYQQKPGQAPRLLIYGASTRATGIPARFSGSGSGTEFTLTISSLQSEDFAVYYCQQYNNWPITFGGGTKVEIK
notes: Fab; CH1 and CL of the Fab not specified; also called Fab of Clone N
GDF15 GFRAL RET pERK Fab IC50 pM [1]: 322 pM
Kd (Human GDF15 Fc [3]): 545 pM
koff (Human GDF15 Fc [3]): 0.00318 s⁻¹
kon (Human GDF15 Fc [3]): 5.84e+06 M⁻¹ s⁻¹
Kd (Mouse GDF15 Fc): 2560 pM

B5: GDF15 antibody agent Clone I, IgG (antibody, V domains shown)
VH: QVQLVQSGAEVKKPGASVKVSCKASGYTFTDEGINWVRQAPGQGLEWMGWITAYSGDTVYAQKLQGRVTMTTDTSTSTAYMELRSLRSDDTAVYYCARGPGQYADVDVWGQGTMVTVSS
VL: DIQMTQSPSSVSASVGDRVTITCRASQGISSWLAWYQQKPGKAPKLLIYAASSLQSGVPSRFSGSGSGTDFTLTISSLQPEDFATYYCQQANSFPITFGGGTKVEIKR
GDF15-GFRAL RET pERK IC50 (pM) [1]: 34.5 pM
GDF15-GFRAL-RET Luciferase IC50 (pM) [1]: 79.3 pM
Kd (Human GDF15 Fc [2]): 262 pM
binding result (Human BMP9): no binding (tested: 100 nM)
binding result (GDF11): no binding (tested: 100 nM)
binding result (Human Activin A Fc): no binding (tested: 100 nM)
binding result (GDF10): no binding (tested: 100 nM)
binding result (GDF8): no binding (tested: 100 nM)
binding result (Human BMP10): no binding (tested: 100 nM)
binding result (Human Activin B): no binding (tested: 100 nM)

B6: GDF15 antibody agent Clone B, Fab (Fab, V domains shown)
VH: QVQLQESGPGLVKPSQTLSLTCTVSGGSISSGGIYWTWIRQHPGKGLEWIGAIAYSGSTYYNPSLKSRVTISVDTSKNQFSLKLSSVTAADTAVYYCARGIEYQHFDYWGQGTLVTVSS
VL: not shown
notes: Fab; CH1 and CL of the Fab not specified; also called Fab of Clone B
GDF15 GFRAL RET pERK Fab IC50 pM [1]: 30.9 pM
Kd (Cyno GDF15 Fc): 349 pM

B7: GDF15 antibody agent Clone C, Fab (Fab, V domains shown)
VH: QVQLQESGPGLVKPSQTLSLTCTVSGGSISSGGYYWSWIRQHPGKGLEWIGAIVYSGHTYYNPSLKSRVTISVDTSKNQFSLKLSSVTAADTAVYYCARGVEYQHFSLWGQGTLVTVSS
VL: not shown
notes: Fab; CH1 and CL of the Fab not specified; also called Fab of Clone C
GDF15 GFRAL RET pERK Fab IC50 pM [1]: 36.8 pM
Kd (Cyno GDF15 Fc): 360 pM
Kd (Mouse GDF15 Fc): 156000 pM

B8: GDF15 antibody agent Clone R, Fab (Fab, V domains shown)
VH: QVQLQESGPGLVKPSQTLSLTCTVSGGSISSGGIYWTWIRQHPGKGLEWIGAIAYSGSTYYNPSLESRVTISVDTSKNQFSLKLSSVTAADTAVYYCARGIEYQHFDYWGQGTLVTVSS
VL: not shown
notes: Fab; CH1 and CL of the Fab not specified; also called Fab of Clone R
Kd (Cyno GDF15 Fc): 366 pM
Kd (Mouse GDF15 Fc): 234000 pM

B9: GDF15 antibody agent Clone D, Fab (Fab, V domains shown)
VH: QVQLQESGPGLVKPSQTLSLTCTVSGGSINSGGYYWTWIRQHPGKGLEWIGAIYYSGSTVYNPSLKSRVTISVDTSKNQFSLKLSSVTAADTAVYYCARGVEYQHFNEWGQGTLVTVSS
VL: not shown
notes: Fab; CH1 and CL of the Fab not specified; also called Fab of Clone D
GDF15 GFRAL RET pERK Fab IC50 pM [1]: 27 pM
Kd (Cyno GDF15 Fc): 562 pM
Kd (Mouse GDF15 Fc): 157000 pM

B10: GDF15 antibody agent Clone A, Fab (Fab, V domains shown)
VH: QVQLQESGPGLVKPSQTLSLTCTVSGGSITSGGSYWSWIRQHPGKGLEWIGAIVYSGSTYYNPSLKSRVTISVDTSKNQFSLKLSSVTAADTAVYYCARGVEYQHFDYWGQGTLVTVSS
VL: not shown
notes: Fab; CH1 and CL of the Fab not specified; also called Fab of Clone A
GDF15 GFRAL RET pERK Fab IC50 pM [1]: 26.5 pM
Kd (Cyno GDF15 Fc): 536 pM

B11: GDF15 antibody agent Clone Q, Fab (Fab, V domains shown)
VH: QVQLQESGPGLVKPSQTLSLTCTVSGGSISSGGIYWTWIRQHPGKGLEWIGAIAYSGSTYYNPSLKSRVTISVDTSKNQFSLKLSSVTAADTAVYYCARGIEYQHFDYWGQGTLVTVSS
VL: not shown
notes: Fab; CH1 and CL of the Fab not specified; also called Fab of Clone Q
Kd (Cyno GDF15 Fc): 327 pM
Kd (Mouse GDF15 Fc): 204000 pM

Reference: patent publication US20250382359A1 (BYOMASS, published 2025)
